Reference: the nanobody polyreactivity screen of Harvey et al. (2022)

Assay: yeast display, Sf9 membrane polyspecificity reagent, FACS + sequencing; frameworks hold sequencing errors
Procedure, shortened: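 Galactose induction of a Saccharomyces cerevisiae BJ5465 synthetic nanobody display library ran 36–48 hours. The cells were then stained for 1 hour at 4 °C with 10% biotinylated, detergent-solubilized Sf9 membrane reagent, pulled down on streptavidin microbeads and FACS-sorted into low and high (top ~1%) gates on expression and reagent-binding fluorescence. Labels for polyreactivity follow the gate of origin.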

Sequence | polyreactivity (PSR sort gate)
QVQHVESGGGLVQAGGSLRLSCAASGSIFRYYVMGWYSQAPGKERELGAAISSGGRTYYADSVKGRFTISRDNAKNTVYLQMNSLKPEDTAVYYCNAQGLFYWEMDYWGQGTQVTVSS | high polyreactivity
QVQHVESGGGLVQAGGSLRLSCAASGSILGGNAMGWYRQAPGKERELVADISGSGDSTYYADSVKGRFTISRDNAKNTVYLQMNSLKPEETAVYYCAVDYDSYWYGTYVNEYDYWGQGTQVTVSS | low polyreactivity
QVQHVESGGGLVQAGGSLRLSCAASGSILRPNVMGWYRQAPGKDRELVARISSRGVNTYYADSVKGRFTISRDNAKNTVYLQMNSLKPEDTAVYYCNARRAQYYWNRSPKYDYWGQGTQVTVSP | high polyreactivity
QVQHVESGGGLVQAGGSLRLSCAASGSTFGKNTRGWSRQAPGKERELVAAISSRGGSTYYADSGKGRFTISRDNAKNTVYLQMNSLKPEDTAVYYCAAYSVSLGYDYWGQGTQVTVST | high polyreactivity
QVQHVESGGGLVQAGGSLRLSCAASGSTFRRYAMGWYRQAPGKERELVASITYRGGSTYYADSVKGRFTISRDNAKNTVYLQKNSLKPEDTAVYYCSKKGVYGPLIEYWAQGTQVTVSS | high polyreactivity
QVQHVESGGGLVQAGGSLRLSCAASGSTFSPNAMGWYRQAPGKERELVAAIRWRTGTTYYADSVKGRFTISRDNAKNTVYLQMNSLKPEDTAVYYCAAVYKPPNNKYGSAWEYGYWGQGTQVTVSS | high polyreactivity
QVQHVESGGGLVQAGGSLRLSCAASGSTFTDYTMGWYRQAPGIESELVARIRSRGARTYYADSVKGRFTISRDNAKNTVYLQMNSLKPEDTAVYYCNKRWGAHRASPAYDYWGQGTQVTVSS | high polyreactivity
QVQHVESGGGLVQAGGSLRLSCAASGSTFVYYAMGWYRQPPGKERELVAVITRGGRTYYADSVKGRFTISRDNAKNTVYLQMNSLKPEDTAVYYCNKVTPHYHDTGLDYWGQGTQVTVSS | high polyreactivity
QVQHVESGGGLVQAGGSLRLSCAASGSTFWYYDMGWYRQAPGKEMELVAAISGSGGRTYYADSVKGRFTISRDNAKNTVYLQMNSLKPEDTAVYYCAADDYWSADFKYNYWGQGTQVTVSS | low polyreactivity
QVQHVESGGGLVQAGGSLRLSCAASGSTFYFYTMGWYRQAPGKERELVAAITYSGGSTYADSVKGRFTISRDNAKNTDYLQMNSLKPEDTAVYYCAAASYFYLYLLEDYWGQGTQVTVSS | low polyreactivity
QVQHVESGGGLVQAGGSLRLSCAASGSTFYGNTMGCYRQAPGKERELVAAISIRGTRTYYADSVKGRFTISRDNAKNTVYLQMNSLKPEDTAVYYCNAVTFPHNYDYWGQGTQVTVSS | high polyreactivity
QVQHVESGGGLVQAGGSLRLSCAASGSTFYRNTKGWYRQAPGKETELVAAISRSGGSTYYADSVKGRFTISRDNAKNTVYVQMNSLKPEDTAVYYCNADYTDYQTYSATTYEYWGQGTQVTVSS | low polyreactivity
QVQHVESGGGLVQAGGSLRLSCAASGSTIILNAMGWYRQAPGKERELVATISSSDTSTYYADSVKGRFTISRDNANNTVYLQMNSLKPEDTAVYYCNADYYTTSYLQRVIHYGVEYDYWGQGTQVTVSS | low polyreactivity
QVQHVESGGGLVQAGGSLRLSCAASGSTYTVYAMGRDRQAPGKERELVAAISGSGGRTYYADSVKGRFTISRDNAKNTVYLQMNILKPEDTGVYYCASQGNYWGQGTQVTVSS | high polyreactivity
QVQHVESGGGLVQAGGSLRLSCAASGTIFEGKGMGWYRQAPGKERELVAAITFRSGSTYYADSVKGRFTISRDNAKNTVYLQMNSLKPEDTAVYYCAADEYYQVSAYDYWGQGTQVTVSS | low polyreactivity
QVQHVESGGGLVQAGGSLRLSCAASGYTFIMYVMGWYRQAPGKERELVAAIDSNGTSTYADSVKGRFTISLDNAKNTVYFQMNSLKPEDTAVYYCAAGDIFRVFKEYDYWGQGTQVTVSS | low polyreactivity
QVQHVESGGGLVQAGGSLRLSCAASRSIFYYYAMGWYRQPPGKERELVAAISSDGTNYADSVKGRFTITRDNAKNTVYLQMNSLNPEDTAVYYCAKDHCTTSYDEGDYWGQGTQVTVSS | low polyreactivity
QVQHVESGGGLVQAGGSLRLSCAASRSTFYYYAMGWYRQAPGKERELVAAISRGGGSTYYADSVKGRFTISRDNAKNTVYLQMNSLKPEDTADDYCAARRVGGGFYTWRNPAYEYWGQGTQVTVSS | high polyreactivity
QVQHVESGGGLVQAGGSLRLSCAASVRTFIYYAMGWYRQAPGKERELVASITTGGRTYYADSVKGRFTISRDNAKNTVYLQMNSLKPEDTAVYYCNARWYRTGSTYHEDYWGQGTQVTVSS | high polyreactivity
QVQHVESGGGLVQAGGSLRLSCAASVRTLYYYAMGWSRQAPGKERELVAAISGGGRTYYADSVKGRFTISRDNAKNTVYLQMIILKPEDTAVYYCAARYRKSGLDNYWGQGTQVTVSS | high polyreactivity
QVQHVESGGGLVQAGGSLRLSCAASVSIFSPNDMGCYRQAPGKERELVAAITSAGSTYYADSVKGRFTISRDNAKNSVYLQMNSLKPEDTAVYYCAASYISVTDYAYFPLWYGYWGQGTQVTVSS | low polyreactivity
QVQHVESGGGLVQAGGSLRLSCASSGSTFRYNAMGWYRQAPVKERELVAAISSSGGSTYYADSVKGRFTISRDNAKNTVYLQMNSLKPEDPEVYYCAAPTRSRFKGYYYWGQGTQVTVSS | high polyreactivity

Sequence | polyreactivity (PSR sort gate)
QVQHVESGGGLVQAGGSLRLSCSASGRTFNFYTMGWYRQAPGKEREFVAGITSTGGSTDYADSVKGRFTISRDNAKNTVYLQMNSLKPEDTAVYYCNALRRWWEPYWTYNYWGQGTQVTVSS | high polyreactivity
QVQHVESGGGLVQAGGSLRLSGAASGSTFQSYAMGWYRQAPGQERELVAAISTSDTDRTYYADSVKGRFTISRDNAKNTVYLQMNSLKPEDTAVYYCNADGYAHGDWYGYWGQGTQVTVSS | low polyreactivity
QVQHVESGGGLVQAGGSLRLSGAAYGRTFLYNAKGWNIQAPGKERELVAVISKRGGRTYYADSVKGRFTISRDNAKNTVYLQMKSLKPEDTAVYYCGAAYVTPPGPLRYNEYYWGQGSQVTVSS | high polyreactivity
QVQHVESGGGLVQAGGSLRLSIAASVFTFKGNAMGWYRQGPGKEMELVSTITQSGGSTYYADSVKGRFTISRDNAKNTVYLQMNSLKPEDTAVYFCNADPITLYYYSWYNYWGQGTQVTVSS | low polyreactivity
QVQHVESGGGLVQAGGSLRLSSAASGRTFGIYAMGWSRQAPGKERELVATISWRGGSTYYADSLKGRFTISRDNSKNTVYLQMNSLKPEDTAVDYCAAGYYPYWGQGTQVTVSS | low polyreactivity
QVQHVESGGGLVQAGGSLRLTCAASGNTFWWNAMGWYRQAPGKERELVAAISWRGGSTYYADSVKGRFTISRDNAKNTVYLQMKCLKPEDTAVYYCAKRNYHDESVVEEDYWGQGTQVTVSS | low polyreactivity
QVQHVESGGGLVQAGGTLRLSCAASGSIFFWYGMGRYRQAPGKERELVAAITSGGISYYADSVKGRFTISRDNAKNTVYFQMNSLKPEDTAVYYCATRTYTYWGGSYPHYYWGQGSQVTVSS | high polyreactivity
QVQHVESGGGLVQAGLSLRLSCAASGRIFYGYAMGWYRQGPGQEREFVAAITSGGRTYYADSVKGRFTISRDNAKTTVYLQLNSLKPEDTAVYYCAAAQYYRYGYWGQGTQVTVSS | high polyreactivity
QVQHVESGGGLVQAGRSLPLSCAASGSIFWDNALGWYRQATGKEMVLVAAITSCGDTTYYADSVKGRFTISRDNSKNTVYLQMNSLKPEDTAVYYCATDSNWYWGFNYWGQGTQVTVSS | low polyreactivity
QVQHVESGGGLVQAGRSLRLICAASGRTFSRYALGWSRQAPGKERELVASIRSGGSTNYADSVKGRFTISRDNAKNTVYLQMNSLKPEDSAVYYCAKRGRLRNYDYWGQGTQVTVSS | high polyreactivity
QVQHVESGGGLVQAGRSLRLSCAATGYIFWKNAMGWYRQAPGKERELVAGITIRGGRTYYADSVKGRFTISRDNAKNTVYLQMNSLKPEDTAVYYCAAGTGVSRYRYVYWGQGTQVTVSS | high polyreactivity
QVQHVESGGGLVQAGVSLRLSCAASGFTFYNYAMGWYRQAPGKERELVAAITSSGTSTYYADSVKGRFTISRDNAKNTVYLQMNSLKPEDTAVYYCNAVSSYYYSYDYWGQGTQVTVSS | low polyreactivity
QVQHVESGGGLVQAGVSLRLSCAASGSTFRRYAMGWYRQSRGKERELVATISSRGGSTNYADSVKGRFTISRDNAKNTVYLQMNSLNPEDTSFYYCARSTSLVTKDDYWGQGTQVTVSS | high polyreactivity
QVQHVESGGGLVQARGSLRLSCAPSGFTFETNAMGWYRQAPGKEREFDAAISWTTTSTYFADSVKGRVTISRDNAKNTVYLQMNSLKPEDTAVYSCAVGLIREFGWDYDYWGQGTQVTVSS | low polyreactivity
QVQHVESGGGLVQAVGSLRLSCAASGRIVYYVMGWYRQAPGKERELVAAISTRGGSTYYADSVKGRFTISLDNAKNTVYLQMNSLTPEDTAVYYCAASSLLTRYNSWGQGTQVTVSS | high polyreactivity
QVQHVESGGGLVQAVGSLRLSSAASGSTIRYYAMGWYRQAPGKERELVASISSSGGSTFYADSVKGRFTISRDNAKNSVYLQMNSLKPEDTAVYYCARRYHYNMDYWGQGTQVTVSS | high polyreactivity
QVQHVESGGGLVQPGGSLRLSCAASGNAMGWYRQAPGKERELVASINRSGGRTYYADSVKGSYTISRDNAKNTVYLQMNSLKPEDTAVYYCAARPHYDSDYWGQGTQVTVSS | low polyreactivity
QVQHVESGGGLVQSGGSHRLSCAASGSTFSDNSLGWYRQAPAKERELVAAISRSGGSTYYADSVNGRFTISRDYAKNTVYLQMNSLIPEDTAVYYCATNRVLTGYDSWGQGTQVTVSS | high polyreactivity
QVQHVESGGGVVQAGGSLRLSCAASGIIFPRNALGWYRQAPGKERELVAAIRSSGGTTYYADSVKGRFTISRDNAKNTVYLQMNSLKPEDTAVFYCAAVTTSKFNYWGQGTQVTVSS | low polyreactivity
QVQHVESGGRLVQAGGSLRLSCAASGITFRVYALGWYRQPRGKERELVAAITSSGGSTYYADSVKGRFTISRDNAKNTVYLQMNSLKPEHTAVDYCAAFSAVDSPLDYWGQGTQVTVSS | low polyreactivity
QVQHVESGGVLVQAGGSLRLSCAASGSIFVIYAMGWYRQAPGQEWELVAAINRGSTNYADSVKGRFTISRDNAKNTVYLQMNSLKPEDTAVYYCAAYGRYGFGRVERYDYWGLGTQVTVSS | high polyreactivity
